As a reminder, the pKd is −log10 of the Kd, conventionally taken in molar units.

Common to all, as to test: holdup assay
Common to all, as to parameters: key: below the threshold = too weak to quantify, mostly under pKd 3.1 to 4
Common to all, as to conditions: plain residues with an end cap or a label only (N-terminal biotin on a linker: ado-ado)

The target in assay [1] is T1, GRIP1_4, Q9Y3R0.
T1 sequence (Q9Y3R0 467-571, limits assumed, looked up): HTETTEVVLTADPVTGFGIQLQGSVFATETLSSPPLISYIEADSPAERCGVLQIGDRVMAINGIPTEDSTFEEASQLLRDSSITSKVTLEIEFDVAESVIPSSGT

The target of assay [2] is T2, DFNB31_2, Q9P202.
T2 sequence (Q9P202 274-371, limits assumed, looked up): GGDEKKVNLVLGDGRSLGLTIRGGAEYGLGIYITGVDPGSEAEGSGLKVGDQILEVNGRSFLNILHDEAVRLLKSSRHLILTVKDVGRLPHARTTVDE

The target in assay [3] is T3, LIN7B, Q9HAP6.
T3 sequence (Q9HAP6 88-185, limits assumed, looked up): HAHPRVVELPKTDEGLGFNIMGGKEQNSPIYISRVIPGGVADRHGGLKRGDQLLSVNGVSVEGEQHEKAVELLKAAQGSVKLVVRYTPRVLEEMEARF

Assay [4] concerns the target T4, LIN7A, O14910.
T4 sequence (O14910 103-200, limits assumed, looked up): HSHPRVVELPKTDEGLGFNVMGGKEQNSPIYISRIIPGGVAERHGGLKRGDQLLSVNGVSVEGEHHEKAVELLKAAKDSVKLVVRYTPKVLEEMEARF

Assay [5] concerns the target T5, APBA1_1, Q02410.
T5 sequence (Q02410 651-752, limits assumed, looked up): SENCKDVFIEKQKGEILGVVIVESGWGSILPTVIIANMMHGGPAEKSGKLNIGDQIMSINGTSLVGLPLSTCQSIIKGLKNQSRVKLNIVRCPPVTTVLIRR

For assay [6], the target named is GRASP, Q7Z6J2.
Assay [7] concerns the target T6, CARD11, Q9BXL7.
T6 sequence (Q9BXL7 662-765, limits assumed, looked up): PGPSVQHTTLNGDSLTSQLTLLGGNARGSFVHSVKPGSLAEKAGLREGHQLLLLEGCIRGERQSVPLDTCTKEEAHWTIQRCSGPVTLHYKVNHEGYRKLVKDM

Assay [8] addresses T7, HTRA3, P83110.
T7 sequence (P83110 354-453, limits assumed, looked up): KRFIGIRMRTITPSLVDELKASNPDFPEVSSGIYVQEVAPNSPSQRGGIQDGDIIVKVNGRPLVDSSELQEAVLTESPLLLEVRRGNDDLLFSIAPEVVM

Assay [9] addresses GRIP2_7, Q9C0E4.
Assay [10] has as its target SCRIB_1, Q14160.
The target in assay [11] is T8, SNTA1, Q13424.
T8 sequence (Q13424 82-180, limits assumed, looked up): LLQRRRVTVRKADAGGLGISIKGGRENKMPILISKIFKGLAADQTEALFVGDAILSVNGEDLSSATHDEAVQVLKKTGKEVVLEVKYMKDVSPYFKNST

Assay [12] has as its target T9, PTPN13_1, Q12923.
T9 sequence (Q12923 1088-1188, limits assumed, looked up): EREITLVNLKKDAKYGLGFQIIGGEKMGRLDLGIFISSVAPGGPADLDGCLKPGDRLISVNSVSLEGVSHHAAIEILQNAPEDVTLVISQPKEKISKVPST

Assay [13] has as its target PDLIM1, O00151.
For assay [14], the target named is LDB3, O75112.
For assay [15], the target named is T10, TIAM2, Q8IVF5.
T10 sequence (Q8IVF5 885-986, limits assumed, looked up): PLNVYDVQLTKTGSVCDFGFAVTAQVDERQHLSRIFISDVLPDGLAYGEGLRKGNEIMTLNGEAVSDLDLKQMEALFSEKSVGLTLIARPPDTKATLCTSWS

In assay [16] the target is DLG1_2, Q12959.
Assay [17] addresses FRMPD3, Q5JV73.
Assay [18] has as its target PARD3_3, Q8TEW0.
Assay [19] addresses T11, DFNB31_1, Q9P202.
T11 sequence (Q9P202 135-233, limits assumed, looked up): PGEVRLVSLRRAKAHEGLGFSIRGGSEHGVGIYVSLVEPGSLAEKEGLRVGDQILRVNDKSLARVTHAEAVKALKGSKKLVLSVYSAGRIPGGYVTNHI

Assay [20] concerns the target T12, DVL3, Q92997.
T12 sequence (Q92997 244-331, limits assumed, looked up): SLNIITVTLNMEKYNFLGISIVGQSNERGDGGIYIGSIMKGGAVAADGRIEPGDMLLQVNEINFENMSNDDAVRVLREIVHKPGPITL

The target of assay [21] is T13, PDZD7_3, Q9H5P4.
T13 sequence (Q9H5P4 857-944, limits assumed, looked up): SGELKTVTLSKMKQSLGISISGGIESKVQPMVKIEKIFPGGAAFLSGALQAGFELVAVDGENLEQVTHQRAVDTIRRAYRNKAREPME

For assay [22], the target named is MAGI2_2, Q86UL8.
For assay [23], the target named is DLG4_2, P78352.
Assay [24] addresses T14, DFNB31_3, Q9P202.
T14 sequence (Q9P202 811-907, limits assumed, looked up): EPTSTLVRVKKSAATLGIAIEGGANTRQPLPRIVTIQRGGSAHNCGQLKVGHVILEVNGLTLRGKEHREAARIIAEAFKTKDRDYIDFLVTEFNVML

DLG1_2, Q12959, sequence (Q12959 314-412): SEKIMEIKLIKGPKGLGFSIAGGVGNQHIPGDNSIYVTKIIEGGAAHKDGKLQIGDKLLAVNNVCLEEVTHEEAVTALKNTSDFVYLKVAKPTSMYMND
PARD3_3, Q8TEW0, sequence (Q8TEW0 582-685): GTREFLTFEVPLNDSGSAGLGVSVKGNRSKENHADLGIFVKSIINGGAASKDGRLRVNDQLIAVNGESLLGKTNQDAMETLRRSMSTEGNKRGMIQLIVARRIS
FRMPD3, Q5JV73, sequence (Q5JV73 12-100): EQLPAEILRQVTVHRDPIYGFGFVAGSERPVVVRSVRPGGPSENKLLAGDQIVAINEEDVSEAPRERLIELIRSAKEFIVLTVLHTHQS
GRASP, Q7Z6J2, sequence (Q7Z6J2 96-193): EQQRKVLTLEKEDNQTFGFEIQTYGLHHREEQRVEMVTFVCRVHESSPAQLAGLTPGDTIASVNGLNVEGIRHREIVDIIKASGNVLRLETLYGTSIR
DLG4_2, P78352, sequence (P78352 155-259): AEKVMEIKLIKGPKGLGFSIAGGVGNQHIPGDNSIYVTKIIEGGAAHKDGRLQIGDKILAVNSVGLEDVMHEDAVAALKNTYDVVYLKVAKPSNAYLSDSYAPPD
SCRIB_1, Q14160, sequence (Q14160 718-814): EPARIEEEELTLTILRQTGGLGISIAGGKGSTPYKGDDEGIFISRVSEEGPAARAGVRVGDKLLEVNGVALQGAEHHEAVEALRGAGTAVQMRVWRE
PDLIM1, O00151, sequence (O00151 1-87): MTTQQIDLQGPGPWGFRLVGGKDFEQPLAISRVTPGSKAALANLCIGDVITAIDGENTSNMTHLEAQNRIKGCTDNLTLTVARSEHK
MAGI2_2, Q86UL8, sequence (Q86UL8 410-522): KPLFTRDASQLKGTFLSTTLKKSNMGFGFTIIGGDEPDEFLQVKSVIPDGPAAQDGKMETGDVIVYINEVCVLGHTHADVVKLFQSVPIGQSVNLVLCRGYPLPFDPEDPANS
GRIP2_7, Q9C0E4, sequence (Q9C0E4 934-1023): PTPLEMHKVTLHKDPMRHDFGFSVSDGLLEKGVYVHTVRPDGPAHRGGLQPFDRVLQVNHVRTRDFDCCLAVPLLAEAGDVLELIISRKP
LDB3, O75112, sequence (O75112 1-94): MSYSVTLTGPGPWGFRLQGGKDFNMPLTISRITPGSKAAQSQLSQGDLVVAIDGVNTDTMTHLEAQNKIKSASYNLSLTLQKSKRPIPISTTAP

B1: ADGRG1, Q9Y653 (peptide)
chain: SSGSTSSSRI
On to B1, for which the pKd result is “below the threshold” in [1]; “below the threshold” in [2]; 3.82 in assay [3]; “below the threshold” in [4]; “below the threshold” in assay [5]; “below the threshold” in [6]. Moreover, the negative-log Kd (pKd) result in assay [7], in assay [8], in [9], in [10], in assay [11] and in [12] was “below the threshold” each time. Further, the pKd entry in assay [13] was “below the threshold”; in assay [14], “below the threshold”; in assay [15], 3.82; in [16], “below the threshold”; in [17] it was “below the threshold”; in [18], “below the threshold”. The pKd in assay [19] was 4.27; in [20] it was “below the threshold”; in assay [21], 4.3; in assay [22] it was “below the threshold”; in assay [23], 3.6; in assay [24], 3.96.

B2: KCNT1, Q5JUK3 (peptide)
chain: NPETRDETQL
For the molecule B2, the negative logarithm of the Kd (pKd) entry in [1], in [2], in [3], in assay [4], in assay [5] and in [6] was “below the threshold” throughout. Also, the negative-log Kd (pKd) entry is “below the threshold” in assay [7]; “below the threshold” in [8]; “below the threshold” in assay [9]; 4.46 in [10]; 4.04 in assay [11]; 3.54 in [12]. Moreover, the negative-log Kd (pKd) entry in assay [13] is “below the threshold”; in assay [14] it was “below the threshold”; in assay [15], “below the threshold”; in [16], 3.88; in assay [17] it was “below the threshold”; in [18], 3.64. Besides, the negative logarithm of the Kd (pKd) is 4.02 in assay [19]; “below the threshold” in assay [20]; 4.66 in [21]; “below the threshold” in assay [22]; 3.59 in [23]; 4.01 in assay [24].

B3: GAGE12J, A6NER3 (peptide)
chain: PEEGKKQSQC
Regarding B3, the pKd result in [1] is “below the threshold”; in [2] it was “below the threshold”; in assay [3], 3.74; in assay [4] it was “below the threshold”; in [5], “below the threshold”; in [6], “below the threshold”. The pKd result in assay [7], in assay [8], in [9], in assay [10], in [11] and in assay [12] was “below the threshold” in each case. Also, the pKd entry in assay [13] was “below the threshold”; in [14] it was “below the threshold”; in assay [15] it was 3.87; in assay [16], “below the threshold”; in [17], “below the threshold”; in assay [18] it was “below the threshold”. In addition, the pKd result in assay [19] is “below the threshold”; in [20], “below the threshold”; in assay [21], “below the threshold”; in assay [22], 3.67; in assay [23], 3.59; in [24] it was 4.

B4: DUSP10, Q9Y6W6 (peptide)
chain: PKLMGVETVV
In the case of B4, the pKd entry in assay [1] is “below the threshold”; in assay [2] it was “below the threshold”; in assay [3], “below the threshold”; in assay [4], 3.58; in [5], “below the threshold”; in assay [6], 3.78. Moreover, the negative logarithm of the Kd (pKd) entry in assay [7] is “below the threshold”; in assay [8], “below the threshold”; in assay [9], “below the threshold”; in assay [10], 4.28; in assay [11] it was 5.13; in assay [12], 3.48. Besides, the negative-log Kd (pKd) result in [13] was “below the threshold”; in assay [14], “below the threshold”; in assay [15], “below the threshold”; in assay [16] it was 5.61; in assay [17], “below the threshold”; in assay [18], 3.75. For the same molecule, the pKd in [19] was 4.09; in assay [20], “below the threshold”; in assay [21], 5.19; in assay [22] it was 4.73; in assay [23], 5.47; in [24] it was “below the threshold”.
